Source: US20120316071A1 (published 2012)

What was measured:
[1] = biological target: T1, Recombinant Human DLL4 (R&D Systems Cat#1506-D4/CF) (human, UniProt Q9NR61 27-529); assay: surface plasmon resonance, Fab against recombinant human DLL4; standard deviation in parentheses
T1 construct: Bought recombinant protein; also called rHuman DLL4; delta-like protein 4

[2] = biological target: T1, Recombinant Human DLL4 (R&D Systems …); assay: 96-well plate ECL (MSD) assay, DLL4 coated on plate, Fab at 0.04 µM; ECL signal on DLL4 over signal on blank well
[3] = biological target: T2, Recombinant Human DLL4 (delta-like protein 4) (human, UniProt Q9NR61 27-524); assay: ELISA on plate-coated DLL4, absorbance at 450 nm, signal minus noise
T2 construct: Bought recombinant protein (R&D Systems Cat#1506-D4/CF); also called rHuman DLL4; Delta-like 4

[4] = biological target: T2, Recombinant Human DLL4 (delta-like …); assay: ECL (MSD) multispot binding assay, immobilized DLL4, 10 nM Fab, signal over blank

B1: Fab VH1-46_IGHD6-6*01_IGHJ1*01 & L6_IGKJ1*01 (Fab, V domains shown)
VH: QVQLVQSGAEVKKPGASVKVSCKASGYTFTSYYMHWVRQAPGQGLEWMGIINPSGGSTSYAQKFQGRVTMTRDTSTSTVYMELSSLRSEDTAVYYCAREEYSSSSAEYFQHWGQGTLVTVSS
VL: not shown
notes: Germline Fab made in E. coli: VH in Plasmid A (CH1, His6 and Flag tags), kappa VL in Plasmid C (kappa CL); also called parental; wildtype
Q: With B1 as the binder, how does the Kd [1] read?
A: 730 nM

Q: What about the koff [1] of the same binder?
A: 0.101 s⁻¹

Q: What about the kon [1] of the same binder?
A: 163000 M⁻¹ s⁻¹

Q: And the Signal/Noise [2]?
A: 3.1

B2: Fab VH1-46_IGHD6-6*01_IGHJ1*01 E100A & L6_IGKJ1*01 (Fab, V domains shown)
VH: QVQLVQSGAEVKKPGASVKVSCKASGYTFTSYYMHWVRQAPGQGLEWMGIINPSGGSTSYAQKFQGRVTMTRDTSTSTVYMELSSLRSEDTAVYYCAREAYSSSSAEYFQHWGQGTLVTVSS
VL: not shown
notes: Heavy chain CDR3 alanine mutant of the parental Fab; Fab format as the parent (CH1 with His6/Flag tags, kappa CL)
Q: B2 was tested. Which Signal/Noise [2] did it give?
A: 0.9

B3: Fab VH1-46_IGHD6-6*01_IGHJ1*01 H111A & L6_IGKJ1*01 (Fab, V domains shown)
VH: QVQLVQSGAEVKKPGASVKVSCKASGYTFTSYYMHWVRQAPGQGLEWMGIINPSGGSTSYAQKFQGRVTMTRDTSTSTVYMELSSLRSEDTAVYYCAREEYSSSSAEYFQAWGQGTLVTVSS
VL: not shown
notes: as for B2
Q: How did the Signal/Noise [2] turn out when B3 was run?
A: 2.4

B4: Fab VH1-46_IGHD6-6*01_IGHJ1*01 S102A & L6_IGKJ1*01 (Fab, V domains shown)
VH: QVQLVQSGAEVKKPGASVKVSCKASGYTFTSYYMHWVRQAPGQGLEWMGIINPSGGSTSYAQKFQGRVTMTRDTSTSTVYMELSSLRSEDTAVYYCAREEYASSSAEYFQHWGQGTLVTVSS
VL: not shown
notes: as for B2
Q: Which Signal/Noise [2] does the source give for B4 here?
A: 5.6

B5: Fab VH1-46_IGHD6-6*01_IGHJ1*01 S103A & L6_IGKJ1*01 (Fab, V domains shown)
VH: QVQLVQSGAEVKKPGASVKVSCKASGYTFTSYYMHWVRQAPGQGLEWMGIINPSGGSTSYAQKFQGRVTMTRDTSTSTVYMELSSLRSEDTAVYYCAREEYSASSAEYFQHWGQGTLVTVSS
VL: not shown
notes: as for B2
Q: How did the Signal/Noise [2] turn out when B5 was run?
A: 3.5

B6: Fab VH1-46_IGHD6-6*01_IGHJ1*01 S104A & L6_IGKJ1*01 (Fab, V domains shown)
VH: QVQLVQSGAEVKKPGASVKVSCKASGYTFTSYYMHWVRQAPGQGLEWMGIINPSGGSTSYAQKFQGRVTMTRDTSTSTVYMELSSLRSEDTAVYYCAREEYSSASAEYFQHWGQGTLVTVSS
VL: not shown
notes: as for B2
Q: Which Signal/Noise [2] does the source give for B6 here?
A: 1.3

B7: Fab VH1-46_IGHD6-6*01_IGHJ1*01 S105A & L6_IGKJ1*01 (Fab, V domains shown)
VH: QVQLVQSGAEVKKPGASVKVSCKASGYTFTSYYMHWVRQAPGQGLEWMGIINPSGGSTSYAQKFQGRVTMTRDTSTSTVYMELSSLRSEDTAVYYCAREEYSSSAAEYFQHWGQGTLVTVSS
VL: not shown
notes: as for B2
Q: Which Signal/Noise [2] does the source give for B7 here?
A: 0.8

B8: Fab VH1-46_IGHD6-6*01_IGHJ1*01 S102A/S103P/S104F/H111F S84G & L6_IGKJ1*01 (Fab, V domains shown)
VH: QVQLVQSGAEVKKPGASVKVSCKASGYTFTSYYMHWVRQAPGQGLEWMGIINPSGGSTSYAQKFQGRVTMTRDTSTSTVYMELGSLRSEDTAVYYCAREEYAPFSAEYFQFWGQGTLVTVSS
VL: not shown
notes: Tested as Fab expressed in E. coli; also called APFF S84G
Q: Which results are given for B8?
A: ELISA (Signal-Noise) [3]: 0.53; Signal/Blank [10 nM Fab] [4]: 346

B9: Fab VH1-46_IGHD6-6*01_IGHJ1*01 S102A/S103P/S104F/H111F S84H & L6_IGKJ1*01 (Fab, V domains shown)
VH: QVQLVQSGAEVKKPGASVKVSCKASGYTFTSYYMHWVRQAPGQGLEWMGIINPSGGSTSYAQKFQGRVTMTRDTSTSTVYMELHSLRSEDTAVYYCAREEYAPFSAEYFQFWGQGTLVTVSS
VL: not shown
notes: Tested as Fab expressed in E. coli; also called APFF S84H
Q: How did the “ELISA (Signal-Noise)” value [3] turn out when B9 was run?
A: 0.41

Q: And the “Signal/Blank [10 nM Fab]” value [4]?
A: 457
